B1: JIP1, full length, YFP fragment F1 fusion (BiFC) [not stated] / F2-JNK1 (K55R) (BiFC) [human] (parent complex)
chain 1: MAERESGGLGGGAASPPAASPFLGLHIASPPNFRLTHDISLEEFEDEDLSEITDECGISLQCKDTLSLRPPRAGLLSAGGGGAGSRLQAEMLQMDLIDATGDTPGAEDDEEDDDEERAARRPGAGPPKAESGQEPASRGQGQSQGQSQGPGSGDTYRPKRPTTLNLFPQVPRSQDTLNNNSLGKKHSWQDRVSRSSSPLKTGEQTPPHEHICLSDELPPQSGPAPTTDRGTSTDSPCRRSTATQMAPPGGPPAAPPGGRGHSHRDRIHYQADVRLEATEEIYLTPVQRPPDAAEPTSAFLPPTESRMSVSSDPDPAAYPSTAGRPHPSISEEEEGFDCLSSPERAEPPGGGWRGSLGEPPPPPRASLSSDTSALSYDSVKYTLVVDEHAQLELVSLRPCFGDYSDESDSATVYDNCASVSSPYESAIGEEYEEAPRPQPPACLSEDSTPDEPDVHFSKKFLNVFMSGRSRSSSAESFGLFSCIINGEEQEQTHRAIFRFVPRHEDELELEVDDPLLVELQAEDYWYEAYNMRTGARGVFPAYYAIEVTKEPEHMAALAKNSDWVDQFRVKFLGSVQVPYHKGNDVLCAAMQKIATTRRLTVHFNPPSSCVLEISVRGVKIGVKADDSQEAKGNKCSHFFQLKNISFCGYHPKNNKYFGFITKHPADHRFACHVFVSEDSTKALAESVGRAFQQFYKQFVEYTCPTEDIYLE
chain 2: MSRSKRDNNFYSVEIGDSTFTVLKRYQNLKPIGSGAQGIVCAAYDAILERNVAIRKLSRPFQNQTHAKRAYRELVLMKCVNHKNIIGLLNVFTPQKSLEEFQDVYIVMELMDANLCQVIQMELDHERMSYLLYQMLCGIKHLHSAGIIHRDLKPSNIVVKSDCTLKILDFGLARTAGTSFMMTPYVVTRYYRAPEVILGMGYKENVDLWSVGCIMGEMVCHKILFPGRDYIDQWNKVIEQLGTPCPEFMKKLQPTVRTYVENRPKYAGYSFEKLFPDVLFPADSEHNKLKASQARDLLSKMLVIDASKRISVDEALQHPYINVWYDPSEAEAPPPKIPDKQLDEREHTIEEWKELIYKEVMDLEERTKNGVIRGQPSPLGAAVINGSQHPSSSSSVNDVSSMSTDPTLASDTDSSLEAAAGPLGCCR

Variants of: B1
Experiment: BiFC (bimolecular fragment complementation), fluorescence measurement on co-transfected HEK293 cell populations; live HEK293 cells, transient co-transfection, N = 6; read off a plot

**Q.** How did the response turn out when chain 1 R160A, chain 1 P161A, chain 1 L164A, chain 1 L166A was run?
**A.** Its response is roughly 1700 arbitrary units.
